Test results from patent publication US20030032157A1, “Polypeptides interactive with Bcl-XL” (priority 2001, published 2003).

B1: SEQ ID NO 16 (peptide)
chain: TYWNLLPPKRPIKEVLTDIFAKVLEKGWVDSRS
notes: mRNA display clone from a known polypeptide
B2: K-ras oncogene cluster polypeptide (peptide)
chain: MDTIKGFDLITNFQVVADALNISLLPNPLATA
notes: Selected clone derived from the 3' UTR of the parent mRNA; not further characterized
B3: SEQ ID NO 36 (peptide)
chain: ILTSPWTTSSGLWPRLQKAAEAFKQLNQP
notes: mRNA display clone from a hypothetical or unknown polypeptide
B4: SEQ ID NO 17 (peptide)
chain: LFTILLTLWTMRCSSTPSG
notes: as for B1
B5: SEQ ID NO 13 (peptide)
chain: RGAVFSQDKDVVQEATKVLRNAADNFYINDR
notes: as for B1
B6: SEQ ID NO 26 (peptide)
chain: ANLLLLMVPILIAMAFLMLTERKILGYIQPR
notes: as for B1
B7: SEQ ID NO 23 (peptide)
chain: GSSKDLAKHIQVVCDGMDLTPKIHDLKPQC
notes: as for B1
B8: SEQ ID NO 48 (peptide)
chain: LFSVLLRYLADNFLPGGS
notes: as for B3
B9: SEQ ID NO 43 (peptide)
chain: RAPRFIKQILLDLKREIDFNVRLVEYFNPLS
notes: as for B3
B10: MYBPC3 cluster polypeptide (peptide)
chain: EANRKQPKPNNSSTAYYNFTGVSILPSYKP
notes: as for B2
B11: lysosomal pepstatin insensitive protease cluster polypeptide (peptide)
chain: ATWMKTLQGLLDRIQAFPSSPH
notes: as for B2
B12: SEQ ID NO 14 (peptide)
chain: TGTGAPRFIKEVQELNSALHQSDLIDIYRTLHP
notes: as for B1
B13: SEQ ID NO 38 (peptide)
chain: MAVIINELSQRDSCGPLKISLNNKILVYGNLFSSFTP
notes: as for B3
B14: SEQ ID NO 19 (peptide)
chain: GLREESEEYMAAADEYNRLKQVKQPA
notes: as for B1
B15: SEQ ID NO 47 (peptide)
chain: PWQYKPIADLYRGRESRPSAPR
notes: as for B3
B16: cDNA FLJ20617 cluster polypeptide (peptide)
chain: GSLTHHINNIKPSSTR
notes: Selected clone translated from the incorrect reading frame; not further characterized
B17: SEQ ID NO 42 (peptide)
chain: GVSEAEGTFPLSTFLLGIASRLRSVA
notes: as for B3
B18: SEQ ID NO 34 (peptide)
chain: TSTLPHIRRTR
notes: as for B3
B19: SEQ ID NO 15 (peptide)
chain: SNELTRAVEELHKLLKEARE
notes: as for B1
B20: SEQ ID NO 28 (peptide)
chain: TLYLKLTALAVTFLGLLTALDLNYPT
notes: as for B1
B21: SEQ ID NO 27 (peptide)
chain: LRLNTTVWPTIITPILLTLFLITNRLITTR
notes: as for B1
B22: SEQ ID NO 45 (peptide)
chain: LALAYYSSRQYASALKHIAEIIERGIRQH
notes: as for B3
B23: UDP glucoronosyl transferase 2B4 precursor cluster polypeptide (peptide)
chain: VSCWPSYLKYPLSTASASLLATQLKSIA
notes: as for B16
B24: SEQ ID NO 40 (peptide)
chain: SSQALRIHQWLHLFSDFTST
notes: as for B3
B25: SEQ ID NO 29 (peptide)
chain: AGVFSAEPSPFPQTRRSMVFARHLREVGDEFRSRHLNSTDDADE
notes: as for B3
B26: SEQ ID NO 21 (peptide)
chain: WERIEERLAYIADHLGFSWTELARAL
notes: as for B1
B27: SEQ ID NO 24 (peptide)
chain: GFLAAEQDIREEIRKVVQSLEQTAREVLTLLQG
notes: as for B1
B28: transforming growth factor cluster polypeptide (peptide)
chain: FVRSVGWRLQNIGDDMDHAICGHDVRLG
notes: Selected clone with insert in reversed orientation relative to the parent mRNA; not further characterized
B29: SEQ ID NO 39 (peptide)
chain: GLAKKSKRNPANLTPP
notes: as for B3
B30: SEQ ID NO 46 (peptide)
chain: AAMLLDRRGTECDLWINEMSLLHKIVQDVYGTPHPPHS
notes: as for B3
B31: arsenate resistance protein cluster polypeptide (peptide)
chain: AGTQPLILAQFMRVGGDELLHFLLW
notes: as for B28
B32: SEQ ID NO 22 (peptide)
chain: ARGDFAQAAQQLWLALRALGRPLPTSH
notes: as for B1
B33: SEQ ID NO 49 (peptide)
chain: DWQVLLGKLLWKIDNPGI
notes: as for B3
B34: L-plastin cluster polypeptide (peptide)
chain: SGLRKPTCGSSQR
notes: as for B2
B35: SEQ ID NO 18 (peptide)
chain: AGEDMEISVKELRTILNRIISKHKDLRT
notes: as for B1
B36: SEQ ID NO 30 (peptide)
chain: GLKLATVAASMDRVPKVTPSSAISSIARENHEPERLGLNGIAETT
notes: as for B3
B37: SEQ ID NO 32 (peptide)
chain: CGGRMEDIPCSRVGHIYRKYVPYKVPAGVSLARNLKRVADWM
notes: as for B3
B38: SEQ ID NO 50 (peptide)
chain: GAMEREWAMFLRAASSRIRGGV
notes: as for B3
B39: SEQ ID NO 31 (peptide)
chain: MRDLPGHYYETLKFLVGHLKTIADHR
notes: as for B3
B40: clone w75 (peptide)
chain: RTLQPRLLQNQQQHLPALPIWFLLQWLRLHPL
notes: as for B3

Target: T1, human Bcl-XL-GST fusion protein (human, UniProt P08515 1-218 = GST; Q07817 1-211)
T1 construct: Made in E. coli, immobilized on glutathione Sepharose beads; whole entry named; also called Bcl-XL-glutathione S-transferase (GST) fusion protein; GST-BCL-XL
T1 sequence (P08515 1-218, tags or fused parts left off): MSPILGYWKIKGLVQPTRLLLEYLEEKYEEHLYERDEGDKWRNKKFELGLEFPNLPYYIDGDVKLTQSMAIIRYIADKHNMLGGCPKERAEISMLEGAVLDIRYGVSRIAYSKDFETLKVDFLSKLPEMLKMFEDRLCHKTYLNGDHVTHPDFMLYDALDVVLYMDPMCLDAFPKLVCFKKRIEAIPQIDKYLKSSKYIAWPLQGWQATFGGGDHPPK
Assay: mRNA display selection on immobilized Bcl-XL-GST
Method: Detection of a polypeptide binding to a Bcl-XL-glutathione S-transferase (GST) fusion protein was carried out as follows. Twenty microliters of glutathione Sepharose 4B slurry (AP Biotech) was aliquoted to a microcentrifuge tube and washed with PBS. The Bcl-XL-GST fusion protein (60 μg), prepared as describe above, was added and allowed to bind to the Sepharose beads for 1 hr at 4° C. The beads were then re-washed in selection buffer (50 mM Tris-HCL pH 7.5, 150 mM KCl, 0.05% Triton X-100, 0.5 mg/ml BSA, and 0.1 mg/ml salmon sperm DNA). The Bcl-XL-GST beads were resuspended in 100 μl of selection buffer (approximately 11.5 μM Bcl-XL) and ³⁵S-labeled mRNA display construct or free peptide was added (approximately 10-60 nM) and incubated on a rotator for 1 hr at 4° C. The reaction was then transferred to a microcentrifuge column (BioRad) and unbound mRNA display constructs or free peptides were removed by a 10 sec spin at 1,000 rpm. The Sepharose beads were then washed three times with 500 μl of selection buffer. The extent of binding between the Bcl-XL-GST fusion protein and the mRNA display constructs or free peptides was determined by scintillation counting each fraction, including the recovered beads.
A human Bcl-XL-GST fusion protein was immobilized on Sepharose beads as described above for the binding assay and incubated with the mRNA display library. For the first round of selection, the input was approximately 0.06 pmol of each of the four source labeled libraries from human tissues (kidney, liver, bone marrow, and brain), which were mixed prior to selection. For subsequent rounds of selection, the input of each of the four source labeled libraries ranged from 0.25 to 0.92 pmol in total. After washing the beads of any unbound nucleic acid-protein fusion library members, the cDNA strand of the bound fusions were recovered in three elutions with 100 μl of 0.1N KOH. Eluates were subsequently neutralized by the addition of 2 μl of 1N Tris-HCL pH 7 and 8 μl of 1N HCL. A small scale PCR optimization was performed with the eluate to determine the number of cycles required to produce a strong signal without overamplification (typically 18-28 cycles). The library was then regenerated by PCR using the remainder of the eluate.

Row | Binder | binding result
1 | B1 | binds
2 | B2 | binds
3 | B3 | binds
4 | B4 | binds
5 | CREQAELTGLRLASLGLKFNKIVHSSMTRAIET [SEQ ID NO 53] | binds
6 | B5 | binds
7 | B6 | binds
8 | B7 | binds
9 | B8 | binds
10 | EQASVKYVILDMYRALLTLMNTSTAT [SEQ ID NO 55] | binds
11 | B9 | binds
12 | B10 | binds
13 | B11 | binds
14 | ASMAPVGRDAETLQKQKETIKAFLKKLEALMASNDNANKT [SEQ ID NO 52] | binds
15 | B12 | binds
16 | B13 | binds
17 | B14 | binds
18 | B15 | binds
19 | B16 | binds
20 | B17 | binds
21 | B18 | binds
22 | B19 | binds
23 | GQGTLWGSGMEAWLATVLKALPWHPTYQLEP [SEQ ID NO 59] | binds
24 | B20 | binds
25 | B21 | binds
26 | B22 | binds

Row | Binder | binding result
27 | B23 | binds
28 | B24 | binds
29 | B25 | binds
30 | B26 | binds
31 | B27 | binds
32 | B28 | binds
33 | B29 | binds
34 | HAVVARLLHIGAIMFQRLDFIEQLSAPPA [SEQ ID NO 58] | binds
35 | B30 | binds
36 | GTRISDMLKLIADTWQRNCCPA [SEQ ID NO 54] | binds
37 | EDLESVLIRLINWAKGSPIP [SEQ ID NO 56] | binds
38 | B31 | binds
39 | B32 | binds
40 | B33 | binds
41 | B34 | binds
42 | VHNFGRHWGLPLSFLLNYPLFLSP [SEQ ID NO 51] | binds
43 | RPVSFCGAVWTLNRAIGRHFVRGSR [SEQ ID NO 57] | binds
44 | B35 | binds
45 | B36 | binds
46 | B37 | binds
47 | B38 | binds
48 | B39 | binds
49 | B40 | binds
50 | QRRGNEFQLRDLADAWDLSSRSRQRGWQMPNCRSRRGPG [SEQ ID NO 62] | binds
51 | VVDVPDFIVWLEEAVSDLHRAL [SEQ ID NO 61] | binds
52 | IAQATKATIDKWNCIKLKIFYTSKKEAS [SEQ ID NO 60] | binds
